Data set [1] has as its target Latent TGFβ Binding Protein-1, short form (LTBP1S), full length. The data set is described as follows: negative stain EM; LTBP1 oligomers imaged by negative stain EM; lengths measured with ImageJ (n = 100 from 32 images).
Data set [2] shares this target. The experiment in a line: SEC-MALS; Superdex 200 or Superose 6; 0.5 ml at ~0.5 mg/ml; 10 mM Tris, 150 mM NaCl, 2 mM CaCl2, pH 7.4; self-association; NT2 monomer also stored overnight at 4 °C in 2 mM calcium and the dimer fraction rerun. (In general: In gel filtration, larger molecules generally elute earlier.)
Data set [3] deals with the molecule itself. The data set is described as follows: AUC; ~0.5 mg/ml; 10 mM Tris, 150 mM NaCl, 2 mM CaCl2, pH 7.4; self-association; NT1 also after 12 h pre-incubation with ~10x molar excess of low molecular weight heparin.
Data set [4] concerns the molecule itself. The data set is described as follows: SEC-MALS; Superdex 200 or Superose 6; 0.5 ml at ~0.5 mg/ml; 10 mM Tris, 150 mM NaCl, 2 mM CaCl2, pH 7.4; self-association; NT2 monomer also stored overnight at 4 °C in 2 mM calcium and the dimer fraction rerun.

The results in this text go back to publication PMC5039643, “Independent multimerization of Latent TGFβ Binding Protein-1 stabilized by cross-linking and enhanced by heparan sulfate” (Scientific Reports, 2016).

For orientation: stoichiometry N means the number of molecules, sites or subunits per partner or assembly. In the case of “Latent TGFβ Binding Protein-1, short form (LTBP1S), full length (natural protein)”, the stoichiometry N in data set [1] and in data set [2] was 4 to 5 throughout.

B1: LTBP1 N-terminal construct NT1 (residues 21–488) (domain or fragment, UniProt Q14766-2 21-488, looked up)
chain: NHTGRIKVVFTPSICKVTCTKGSCQNSCEKGNTTTLISENGHAADTLTATNFRVVICHLPCMNGGQCSSRDKCQCPPNFTGKLCQIPVHGASVPKLYQHSQQPGKALGTHVIHSTHTLPLTVTSQQGVKVKFPPNIVNIHVKHPPEASVQIHQVSRIDGPTGQKTKEAQPGQSQVSYQGLPVQKTQTIHSTYSHQQVIPHVYPVAAKTQLGRCFQETIGSQCGKALPGLSKQEDCCGTVGTSWGFNKCQKCPKKPSYHGYNQMMECLPGYKRVNNTFCQDINECQLQGVCPNGECLNTMGSYRCTCKIGFGPDPTFSSCVPDPPVISEEKGPCYRLVSSGRQCMHPLSVHLTKQLCCCSVGKAWGPHCEKCPLPGTAAFKEICPGGMGYTVSGVHRRRPIHHHVGKGPVFVKPKNTQPVAKSTHPPPLPAKEEPVEALTFSREHGPGVAEPEVATAPPEKEIPSLDQE
notes: LTBP1S residues 21-488; also called NT1 region
Turning to B1, in data set [3], the “stoichiometry N” value was determined as 2.

B2: LTBP1 N-terminal construct NT2 (residues 21–630) (domain or fragment, UniProt Q14766-2 21-630, looked up)
chain: NHTGRIKVVFTPSICKVTCTKGSCQNSCEKGNTTTLISENGHAADTLTATNFRVVICHLPCMNGGQCSSRDKCQCPPNFTGKLCQIPVHGASVPKLYQHSQQPGKALGTHVIHSTHTLPLTVTSQQGVKVKFPPNIVNIHVKHPPEASVQIHQVSRIDGPTGQKTKEAQPGQSQVSYQGLPVQKTQTIHSTYSHQQVIPHVYPVAAKTQLGRCFQETIGSQCGKALPGLSKQEDCCGTVGTSWGFNKCQKCPKKPSYHGYNQMMECLPGYKRVNNTFCQDINECQLQGVCPNGECLNTMGSYRCTCKIGFGPDPTFSSCVPDPPVISEEKGPCYRLVSSGRQCMHPLSVHLTKQLCCCSVGKAWGPHCEKCPLPGTAAFKEICPGGMGYTVSGVHRRRPIHHHVGKGPVFVKPKNTQPVAKSTHPPPLPAKEEPVEALTFSREHGPGVAEPEVATAPPEKEIPSLDQEKTKLEPGQPQLSPGISTIHLHPQFPVVIEKTSPPVPVEVAPEASTSSASQVIAPTQVTEINECTVNPDICGAGHCINLPVRYTCICYEGYRFSEQQRKCVDIDECTQVQHLCSQGRCENTEGSFLCICPAGFMASEEGTNCI
notes: LTBP1S residues 21-630; also called NT2 region
For B2, the “stoichiometry N” value in data set [4] was determined as 2.
